In article PMC5121064:

Molecular target: Sec14/PH module of NF1, NanoBRET construct
Test: FRET or BRET

Sequence of Sec14/PH module of NF1, NanoBRET construct (P21359 2-2839): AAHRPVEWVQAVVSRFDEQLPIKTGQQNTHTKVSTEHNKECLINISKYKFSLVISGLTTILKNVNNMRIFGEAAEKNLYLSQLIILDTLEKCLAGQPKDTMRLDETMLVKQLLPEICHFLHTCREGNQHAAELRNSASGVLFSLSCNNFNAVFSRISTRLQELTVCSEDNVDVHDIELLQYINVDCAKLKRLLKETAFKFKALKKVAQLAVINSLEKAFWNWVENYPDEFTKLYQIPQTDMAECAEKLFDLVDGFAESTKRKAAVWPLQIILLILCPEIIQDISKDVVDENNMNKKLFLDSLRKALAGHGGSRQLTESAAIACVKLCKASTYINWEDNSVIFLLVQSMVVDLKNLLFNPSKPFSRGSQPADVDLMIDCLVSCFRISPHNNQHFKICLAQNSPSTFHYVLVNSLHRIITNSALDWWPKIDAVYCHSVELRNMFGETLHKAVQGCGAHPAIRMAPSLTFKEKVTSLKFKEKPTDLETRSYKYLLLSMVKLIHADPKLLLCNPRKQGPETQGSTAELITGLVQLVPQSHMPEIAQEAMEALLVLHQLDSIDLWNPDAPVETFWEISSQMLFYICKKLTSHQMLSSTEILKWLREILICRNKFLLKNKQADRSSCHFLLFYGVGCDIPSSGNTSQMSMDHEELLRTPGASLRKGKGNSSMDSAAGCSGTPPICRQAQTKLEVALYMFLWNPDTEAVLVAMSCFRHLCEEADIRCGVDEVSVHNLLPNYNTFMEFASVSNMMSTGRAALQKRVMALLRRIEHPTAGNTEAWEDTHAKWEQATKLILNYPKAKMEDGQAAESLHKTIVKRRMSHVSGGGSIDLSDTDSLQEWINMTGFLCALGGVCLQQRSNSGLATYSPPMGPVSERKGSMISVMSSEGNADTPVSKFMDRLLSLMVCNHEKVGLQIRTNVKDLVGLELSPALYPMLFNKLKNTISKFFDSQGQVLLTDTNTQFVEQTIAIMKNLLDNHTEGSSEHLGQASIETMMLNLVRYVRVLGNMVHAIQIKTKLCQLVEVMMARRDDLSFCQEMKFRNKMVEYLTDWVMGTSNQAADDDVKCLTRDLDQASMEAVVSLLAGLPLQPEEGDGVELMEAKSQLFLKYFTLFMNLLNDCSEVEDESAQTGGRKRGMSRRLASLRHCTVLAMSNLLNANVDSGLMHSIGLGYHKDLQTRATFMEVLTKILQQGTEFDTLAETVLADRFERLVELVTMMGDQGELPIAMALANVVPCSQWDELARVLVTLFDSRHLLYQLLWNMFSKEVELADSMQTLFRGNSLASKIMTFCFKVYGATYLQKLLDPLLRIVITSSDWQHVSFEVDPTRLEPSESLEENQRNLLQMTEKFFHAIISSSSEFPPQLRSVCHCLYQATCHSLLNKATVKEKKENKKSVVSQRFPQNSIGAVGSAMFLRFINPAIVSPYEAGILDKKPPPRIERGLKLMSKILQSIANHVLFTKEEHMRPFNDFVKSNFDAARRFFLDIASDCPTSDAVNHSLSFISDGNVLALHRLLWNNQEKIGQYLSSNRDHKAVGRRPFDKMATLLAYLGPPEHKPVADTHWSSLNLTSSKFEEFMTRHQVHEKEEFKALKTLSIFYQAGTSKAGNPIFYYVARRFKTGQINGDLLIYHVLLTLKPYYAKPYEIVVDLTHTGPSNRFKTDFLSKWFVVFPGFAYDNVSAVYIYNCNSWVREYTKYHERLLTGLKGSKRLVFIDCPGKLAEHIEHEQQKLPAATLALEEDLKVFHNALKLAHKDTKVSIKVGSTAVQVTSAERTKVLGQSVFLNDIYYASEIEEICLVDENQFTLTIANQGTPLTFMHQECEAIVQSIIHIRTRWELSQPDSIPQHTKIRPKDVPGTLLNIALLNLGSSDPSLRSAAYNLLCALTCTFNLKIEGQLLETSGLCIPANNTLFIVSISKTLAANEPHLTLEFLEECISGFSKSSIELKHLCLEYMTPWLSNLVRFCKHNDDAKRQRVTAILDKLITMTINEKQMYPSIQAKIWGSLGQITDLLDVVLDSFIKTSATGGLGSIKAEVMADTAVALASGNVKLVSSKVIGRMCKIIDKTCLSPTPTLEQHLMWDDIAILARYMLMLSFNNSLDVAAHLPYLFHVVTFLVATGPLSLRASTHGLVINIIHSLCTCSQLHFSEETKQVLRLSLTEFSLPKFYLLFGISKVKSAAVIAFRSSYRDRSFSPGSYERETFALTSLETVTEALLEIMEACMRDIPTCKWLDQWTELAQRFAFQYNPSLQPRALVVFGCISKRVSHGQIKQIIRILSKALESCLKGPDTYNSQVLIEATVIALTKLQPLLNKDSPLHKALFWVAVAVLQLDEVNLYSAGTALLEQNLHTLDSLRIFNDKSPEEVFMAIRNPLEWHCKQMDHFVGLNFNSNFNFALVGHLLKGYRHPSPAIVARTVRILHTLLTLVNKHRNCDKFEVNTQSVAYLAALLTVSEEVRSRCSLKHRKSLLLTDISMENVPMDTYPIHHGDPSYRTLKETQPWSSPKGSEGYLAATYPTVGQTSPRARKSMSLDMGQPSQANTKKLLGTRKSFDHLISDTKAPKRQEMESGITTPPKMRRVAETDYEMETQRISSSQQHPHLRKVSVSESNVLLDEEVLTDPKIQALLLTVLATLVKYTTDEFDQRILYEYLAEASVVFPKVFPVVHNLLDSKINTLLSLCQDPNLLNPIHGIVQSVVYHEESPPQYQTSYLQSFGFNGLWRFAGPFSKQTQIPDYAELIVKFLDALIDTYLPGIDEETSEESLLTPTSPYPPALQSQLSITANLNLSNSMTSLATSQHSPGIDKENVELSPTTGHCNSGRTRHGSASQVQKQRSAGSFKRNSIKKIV

Gβγ, NanoBRET construct (from UniProt P62873 1-340; P59768 1-71) (complex)
1/τ of the onset of the BRET signal after MOR activation: 0.67 s⁻¹
